Experiments:
HER2 (human) = HER2 (human) (UniProt P04626); assay: ELISA
PD-1 (human) = PD-1 (human) (UniProt Q15116); assay: competition ELISA; blocking PD-1/PD-L2
PD-1 (human), sequence (Q15116 25-167): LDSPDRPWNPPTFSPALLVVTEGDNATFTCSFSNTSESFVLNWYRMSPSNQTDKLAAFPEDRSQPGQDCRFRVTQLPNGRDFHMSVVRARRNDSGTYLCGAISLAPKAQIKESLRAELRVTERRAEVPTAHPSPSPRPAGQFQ

Work on HER2 yielded an EC50 (HER2 (human)) of 0.12 nM and an IC50 (PD-1 (human)) greater than 20 nM.
